Target: GST-BLM fusion protein (human), P54132
Assay: pull-down
Details: remark: other sources report otherwise

GST-BLM fusion protein (human), P54132, sequence (P54132 whole entry, the tested form may be a part): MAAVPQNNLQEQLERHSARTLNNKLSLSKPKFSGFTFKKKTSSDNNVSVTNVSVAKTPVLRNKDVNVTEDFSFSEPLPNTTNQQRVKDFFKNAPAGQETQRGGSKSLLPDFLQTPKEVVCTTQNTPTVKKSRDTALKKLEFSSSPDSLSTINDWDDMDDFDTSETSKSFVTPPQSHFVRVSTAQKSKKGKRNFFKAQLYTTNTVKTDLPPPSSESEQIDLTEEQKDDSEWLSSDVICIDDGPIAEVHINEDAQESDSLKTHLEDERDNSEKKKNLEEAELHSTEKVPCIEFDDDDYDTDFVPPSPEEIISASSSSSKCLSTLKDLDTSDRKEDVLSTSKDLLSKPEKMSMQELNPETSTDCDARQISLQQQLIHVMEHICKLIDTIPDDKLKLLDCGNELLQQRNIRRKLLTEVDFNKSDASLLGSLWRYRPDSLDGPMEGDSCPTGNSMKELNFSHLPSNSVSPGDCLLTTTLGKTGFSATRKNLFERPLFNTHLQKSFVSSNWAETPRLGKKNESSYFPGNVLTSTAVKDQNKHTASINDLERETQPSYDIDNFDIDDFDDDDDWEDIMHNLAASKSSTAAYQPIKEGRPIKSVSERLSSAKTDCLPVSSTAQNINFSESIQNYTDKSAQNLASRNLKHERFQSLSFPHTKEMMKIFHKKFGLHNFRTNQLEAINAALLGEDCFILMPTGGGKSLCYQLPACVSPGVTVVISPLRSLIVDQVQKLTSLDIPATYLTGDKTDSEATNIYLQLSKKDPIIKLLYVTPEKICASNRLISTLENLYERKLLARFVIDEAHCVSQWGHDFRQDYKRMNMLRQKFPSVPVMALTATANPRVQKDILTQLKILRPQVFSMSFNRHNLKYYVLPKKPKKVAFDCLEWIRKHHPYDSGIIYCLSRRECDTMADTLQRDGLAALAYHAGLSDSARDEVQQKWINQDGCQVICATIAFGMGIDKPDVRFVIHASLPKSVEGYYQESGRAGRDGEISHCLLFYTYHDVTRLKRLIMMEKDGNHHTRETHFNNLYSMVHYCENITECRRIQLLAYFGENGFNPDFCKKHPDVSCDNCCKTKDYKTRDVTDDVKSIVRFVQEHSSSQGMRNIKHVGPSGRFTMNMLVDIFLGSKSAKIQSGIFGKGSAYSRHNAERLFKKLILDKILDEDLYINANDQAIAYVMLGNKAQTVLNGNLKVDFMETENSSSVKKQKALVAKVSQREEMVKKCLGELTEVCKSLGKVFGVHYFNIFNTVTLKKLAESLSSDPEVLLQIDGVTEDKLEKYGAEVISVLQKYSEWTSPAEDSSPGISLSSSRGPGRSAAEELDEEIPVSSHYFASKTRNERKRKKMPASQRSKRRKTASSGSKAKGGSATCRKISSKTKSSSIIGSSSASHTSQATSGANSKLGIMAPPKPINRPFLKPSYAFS

- percent of the hRAD51 in the lysate retained: 30 to 40%
B1: hRAD51, Q06609 1-339 (natural protein)
chain: MAMQMQLEANADTSVEEESFGPQPISRLEQCGINANDVKKLEEAGFHTVEAVAYAPKKELINIKGISEAKADKILAEAAKLVPMGFTTATEFHQRRSEIIQITTGSKELDKLLQGGIETGSITEMFGEFRTGKTQICHTLAVTCQLPIDRGGGEGKAMYIDTEGTFRPERLLAVAERYGLSGSDVLDNVAYARAFNTDHQTQLLYQASAMMVESRYALLIVDSATALYRTDYSGRGELSARQMHLARFLRMLLRLADEFGVAVVITNQVVAQVDGAAMFAADPKKPIGGNIIAHASTTRLYLRKGRGETRICKIYDSPCLPEAEAMFAINADGVGDAKD
